From the supplement of paper PMC10567573

B1: PI4K2A (parent)
chain: FVKDPQGRIIAVFKPKNEEPYGHL
B2: ATL3 (parent)
chain: EKALASILLQDHIRDLDVVVVSVA

Variants of: B1
Assay: protein stability index of a GFP-peptide fusion (GPS, HEK-293T) (PSI 1-6); higher = more stable
Conditions: c terminus: a fixed tail appended
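Note: lentivirally expressed fusions sorted by FACS into six bins by GFP to DsRed ratio, PSI derived from sequencing read proportions per bin multiplied by bin number.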

| Variant | protein stability index |
| --- | --- |
| FVKDPQGRIIAVFKPKNEEPYGHK | 2.04 |
| FVKDPQGRIIAVFKPKNEEPYGHM | 1.92 |
| FVKDPQGRIIAVFKPKNEEPYGHN | 1.63 |
| FVKDPQGRIIAVFKPKNEEPYGHP | 2.33 |
| FVKDPQGRIIAVFKPKNEEPYGHQ | 2.03 |
| FVKDPQGRIIAVFKPKNEEPYGHR | 1.42 |
| FVKDPQGRIIAVFKPKNEEPYGHS | 2.1 |
| FVKDPQGRIIAVFKPKNEEPYGHT | 2.22 |
| FVKDPQGRIIAVFKPKNEEPYGHV | 2.19 |
| FVKDPQGRIIAVFKPKNEEPYGHW | 1.74 |
| FVKDPQGRIIAVFKPKNEEPYGHY | 1.41 |

Variants of: B2
Assay: as above
Conditions: c terminus: a fixed tail appended

| Variant | protein stability index |
| --- | --- |
| CKALASILLQDHIRDLDVVVVSVA | 3.34 |
| GKALASILLQDHIRDLDVVVVSVA | 3.59 |
| HKALASILLQDHIRDLDVVVVSVA | 2.05 |
| IKALASILLQDHIRDLDVVVVSVA | 2.5 |
| NKALASILLQDHIRDLDVVVVSVA | 2.93 |
| RKALASILLQDHIRDLDVVVVSVA | 2.24 |
| EDALASILLQDHIRDLDVVVVSVA | 2.78 |
| ERALASILLQDHIRDLDVVVVSVA | 1.3 |
| EYALASILLQDHIRDLDVVVVSVA | 2.98 |
| EKELASILLQDHIRDLDVVVVSVA | 1.51 |
| EKYLASILLQDHIRDLDVVVVSVA | 1.09 |
| EKAAASILLQDHIRDLDVVVVSVA | 1.45 |
| EKACASILLQDHIRDLDVVVVSVA | 1.47 |
| EKADASILLQDHIRDLDVVVVSVA | 2.61 |
| EKAEASILLQDHIRDLDVVVVSVA | 1.39 |
| EKAHASILLQDHIRDLDVVVVSVA | 1.05 |
| EKAKASILLQDHIRDLDVVVVSVA | 3.04 |
| EKAPASILLQDHIRDLDVVVVSVA | 1.25 |
| EKAQASILLQDHIRDLDVVVVSVA | 1.69 |
| EKATASILLQDHIRDLDVVVVSVA | 1.37 |
| EKAVASILLQDHIRDLDVVVVSVA | 3.38 |

| Variant | protein stability index |
| --- | --- |
| EKAYASILLQDHIRDLDVVVVSVA | 1.83 |
| EKALESILLQDHIRDLDVVVVSVA | 2.29 |
| EKALHSILLQDHIRDLDVVVVSVA | 1.35 |
| EKALKSILLQDHIRDLDVVVVSVA | 1.74 |
| EKALNSILLQDHIRDLDVVVVSVA | 3.63 |
| EKALQSILLQDHIRDLDVVVVSVA | 3.29 |
| EKALTSILLQDHIRDLDVVVVSVA | 2.26 |
| EKALVSILLQDHIRDLDVVVVSVA | 2.9 |
| EKALWSILLQDHIRDLDVVVVSVA | 2.08 |
| EKALAKILLQDHIRDLDVVVVSVA | 2.18 |
| EKALALILLQDHIRDLDVVVVSVA | 3.06 |
| EKALAPILLQDHIRDLDVVVVSVA | 1.93 |
| EKALASALLQDHIRDLDVVVVSVA | 2.62 |
| EKALASDLLQDHIRDLDVVVVSVA | 2.51 |
| EKALASELLQDHIRDLDVVVVSVA | 2.37 |
| EKALASHLLQDHIRDLDVVVVSVA | 2.31 |
| EKALASKLLQDHIRDLDVVVVSVA | 2.32 |
| EKALASLLLQDHIRDLDVVVVSVA | 1.97 |
| EKALASNLLQDHIRDLDVVVVSVA | 1.31 |
| EKALASPLLQDHIRDLDVVVVSVA | 3.2 |
| EKALASRLLQDHIRDLDVVVVSVA | 2.08 |

| Variant | protein stability index |
| --- | --- |
| EKALASSLLQDHIRDLDVVVVSVA | 2.85 |
| EKALASTLLQDHIRDLDVVVVSVA | 2.13 |
| EKALASYLLQDHIRDLDVVVVSVA | 2.15 |
| EKALASIALQDHIRDLDVVVVSVA | 2.99 |
| EKALASIELQDHIRDLDVVVVSVA | 1.98 |
| EKALASIGLQDHIRDLDVVVVSVA | 2.62 |
| EKALASIILQDHIRDLDVVVVSVA | 2.89 |
| EKALASIKLQDHIRDLDVVVVSVA | 1.14 |
| EKALASINLQDHIRDLDVVVVSVA | 1.04 |
| EKALASIPLQDHIRDLDVVVVSVA | 2.34 |
| EKALASIQLQDHIRDLDVVVVSVA | 2.63 |
| EKALASITLQDHIRDLDVVVVSVA | 1.55 |
| EKALASIWLQDHIRDLDVVVVSVA | 3.89 |
| EKALASILEQDHIRDLDVVVVSVA | 3.11 |
| EKALASILHQDHIRDLDVVVVSVA | 2.71 |
| EKALASILKQDHIRDLDVVVVSVA | 3.25 |
| EKALASILMQDHIRDLDVVVVSVA | 2.46 |
| EKALASILPQDHIRDLDVVVVSVA | 1.61 |
| EKALASILLNDHIRDLDVVVVSVA | 2.98 |
| EKALASILLSDHIRDLDVVVVSVA | 2.87 |
| EKALASILLYDHIRDLDVVVVSVA | 3.47 |

| Variant | protein stability index |
| --- | --- |
| EKALASILLQEHIRDLDVVVVSVA | 3.13 |
| EKALASILLQGHIRDLDVVVVSVA | 3.66 |
| EKALASILLQKHIRDLDVVVVSVA | 3.25 |
| EKALASILLQPHIRDLDVVVVSVA | 3.03 |
| EKALASILLQDEIRDLDVVVVSVA | 2.17 |
| EKALASILLQDGIRDLDVVVVSVA | 4.08 |
| EKALASILLQDIIRDLDVVVVSVA | 3.19 |
| EKALASILLQDLIRDLDVVVVSVA | 2.48 |
| EKALASILLQDPIRDLDVVVVSVA | 2.97 |
| EKALASILLQDTIRDLDVVVVSVA | 2.26 |
| EKALASILLQDHDRDLDVVVVSVA | 3.12 |
| EKALASILLQDHSRDLDVVVVSVA | 1.26 |
| EKALASILLQDHTRDLDVVVVSVA | 3.04 |
| EKALASILLQDHYRDLDVVVVSVA | 3.9 |
| EKALASILLQDHIDDLDVVVVSVA | 2.15 |
| EKALASILLQDHIFDLDVVVVSVA | 3.13 |
| EKALASILLQDHIKDLDVVVVSVA | 3.11 |
| EKALASILLQDHILDLDVVVVSVA | 3.36 |
| EKALASILLQDHINDLDVVVVSVA | 3.67 |
| EKALASILLQDHIPDLDVVVVSVA | 1.55 |
